Experimental data taken from paper doi:10.1101/2025.06.13.659407, “Scavenger Receptor class F member 2 is an intracellular receptor for Hepatitis B virus” (bioRxiv, 2025).

Biological target: biotinylated preS1 peptide 79–108 carrying 89D and 90K (hepatitis B virus (residues numbered …, biotin (position not stated for this peptide)))
Experiment: pull-down; 2 µM biotinylated preS1 peptide on Dynabeads MyOne Streptavidin T1, incubated with 2 µg purified protein 1 h at 37°C, washed with PBS 0.01% Tween 20, Western blot (anti-HA or anti-human IgG1); the paper calls it immunoprecipitation (IP-Western)
Conditions: both partners purified

B1: sEGF4–6-hFc (soluble fusion protein comprising SCARF2's EGF4–6 domains, with an N-terminal HA tag and a C-terminal human IgG1 Fc tag) (Fc fusion)
chain: GSYPYDVPDYAGSSACYCSATSRCDPQTGACLCHAGWWGRSCNNQCACNSSPCEQQSGRCQCRERTFGARCDRYCQCFRGRCHPVDGTCACEPGYRGKYCR
fold efficiency of precipitation against preS1 79–108 QT and QS peptides: ~2 fold
